Reference: IntAct's records for PubMed 15933719

B1: Rab-interacting lysosomal protein (Homo sapiens), Q96NA2 (parent)
chain: MEPRRAAPGVPGWGSREAAGSASAAELVYHLAGALGTELQDLARRFGPEAAAGLVPLVVRALELLEQAAVGPAPDSLQVSAQPAEQELRRLREENERLRRELRAGPQEERALLRQLKEVTDRQRDELRAHNRDLRQRGQETEALQEQLQRLLLVNAELRHKLAAMQTQLRAAQDRERERQQPGEAATPQAKERARGQAGRPGHQHGQEPEWATAGAGAPGNPEDPAEAAQQLGRPSEAGQCRFSREEFEQILQERNELKAKVFLLKEELAYFQRELLTDHRVPGLLLEAMKVAVRKQRKKIKAKMLGTPEEAESSEDEAGPWILLSDDKGDHPPPPESKIQSFFGLWYRGKAESSEDETSSPAPSKLGGEEEAQPQSPAPDPPCSALHEHLCLGASAAPEA

Variants of: B1
Conditions: with rab7a_human RAB7A
For K304A, the “effect of a mutation on the interaction” value was “disrupting interaction strength”. For L306A, the “effect of a mutation on the interaction” value was “disrupting interaction strength”. For L258A, the “effect of a mutation on the interaction” value was “disrupting interaction strength”. In the case of L252A, the “effect of a mutation on the interaction” value is reported as “disrupting interaction strength”. With I251A the “effect of a mutation on the interaction” value was “disrupting interaction strength”. M305A was tested, and the “effect of a mutation on the interaction” value was “disrupting interaction strength”. For R255A, the “effect of a mutation on the interaction” value was “disrupting interaction strength”.
